This data set can be described thus: Dynamic light scattering. The settings on record: PBS, 100 mM MgCl2; insulin 25 µM, dAb 1 mg/mL; Figure S2 and S3. In kind it is physicochemical.

On to “insulin: human insulin obtained from R&D Systems; analyte of the assay”, for which the “aggregation under buffer conditions (DLS)” value is “No aggregation”.

For the origin of these results see article PMC7856282 (Nature biomedical engineering, 2020).
